Data reported in EP4588489A1, “LINKER FOR ANTIBODY-DRUG CONJUGATE AND USE THEREOF” (priority 2022, dated 2024).

T1: TROP2 (UniProt P09758 27-323, limits assumed)
T1 sequence (looked up): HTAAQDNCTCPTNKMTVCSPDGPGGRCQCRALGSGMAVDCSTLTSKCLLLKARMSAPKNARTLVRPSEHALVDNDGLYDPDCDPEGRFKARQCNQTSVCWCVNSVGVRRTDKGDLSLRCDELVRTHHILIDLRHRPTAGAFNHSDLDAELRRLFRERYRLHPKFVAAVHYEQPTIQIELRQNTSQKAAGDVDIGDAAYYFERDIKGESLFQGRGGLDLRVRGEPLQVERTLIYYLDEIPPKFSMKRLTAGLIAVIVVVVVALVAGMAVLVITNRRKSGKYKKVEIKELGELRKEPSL

T2: BCMA (UniProt Q02223 1-184, limits assumed)
T2 sequence (looked up): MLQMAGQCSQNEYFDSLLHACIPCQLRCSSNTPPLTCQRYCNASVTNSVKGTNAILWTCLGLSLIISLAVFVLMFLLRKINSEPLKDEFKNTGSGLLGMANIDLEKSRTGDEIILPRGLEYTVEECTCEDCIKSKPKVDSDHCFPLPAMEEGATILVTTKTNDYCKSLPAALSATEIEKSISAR

B1: ADC01 (Datopotamab conjugated to GGFG-Dxd) (antibody, human IgG1, kappa, V domains shown)
VH: QVQLVQSGAEVKKPGASVKVSCKASGYTFTTAGMQWVRQAPGQGLEWMGWINTHSGVPKYAEDFKGRVTISADTSTSTAYLQLSSLKSEDTAVYYCARSGFGSSYWYFDVWGQGTLVTVSS
VL: DIQMTQSPSSLSASVGDRVTITCKASQDVSTAVAWYQQKPGKAPKLLIYSASYRYTGVPSRFSGSGSGTDFTLTISSLQPEDFAVYYCQQHYITPLTFGQGTKLEIKR
modifications: linker-drug GGFG-Dxd on cysteines of reduced interchain disulfides; average DAR 3.73
B2: ADC03 (hRS7 conjugated to CPD1) (antibody, human IgG1, kappa, V domains shown)
VH: QVQLQQSGSELKKPGASVKVSCKASGYTFTNYGMNWVKQAPGQGLKWMGWINTYTGEPTYTDDFKGRFAFSLDTSVSTAYLQISSLKADDTAVYFCARGGFGSSYWYFDVWGQGSLVTVSS
VL: DIQLTQSPSSLSASVGDRVSITCKASQDVSIAVAWYQQKPGKAPKLLIYSASYRYTGVPDRFSGSGSGTDFTLTISSLQPEDFAVYYCQQHYITPLTFGAGTKVEIKR
modifications: linker-drug CPD1 on cysteines of reduced interchain disulfides; average DAR 3.82
B3: ADC04 (hRS7 conjugated to CPD2) (antibody, human IgG1, kappa, V domains shown)
VH: QVQLQQSGSELKKPGASVKVSCKASGYTFTNYGMNWVKQAPGQGLKWMGWINTYTGEPTYTDDFKGRFAFSLDTSVSTAYLQISSLKADDTAVYFCARGGFGSSYWYFDVWGQGSLVTVSS
VL: DIQLTQSPSSLSASVGDRVSITCKASQDVSIAVAWYQQKPGKAPKLLIYSASYRYTGVPDRFSGSGSGTDFTLTISSLQPEDFAVYYCQQHYITPLTFGAGTKVEIKR
modifications: linker-drug CPD2 on cysteines of reduced interchain disulfides; average DAR 3.92
B4: ADC05 (hRS7 conjugated to CPD3) (antibody, human IgG1, kappa, V domains shown)
VH: QVQLQQSGSELKKPGASVKVSCKASGYTFTNYGMNWVKQAPGQGLKWMGWINTYTGEPTYTDDFKGRFAFSLDTSVSTAYLQISSLKADDTAVYFCARGGFGSSYWYFDVWGQGSLVTVSS
VL: DIQLTQSPSSLSASVGDRVSITCKASQDVSIAVAWYQQKPGKAPKLLIYSASYRYTGVPDRFSGSGSGTDFTLTISSLQPEDFAVYYCQQHYITPLTFGAGTKVEIKR
modifications: linker-drug CPD3 on cysteines of reduced interchain disulfides; average DAR 3.99
B5: ADC02 (hRS7 conjugated to GGFG-Dxd) (antibody, human IgG1, kappa, V domains shown)
VH: QVQLQQSGSELKKPGASVKVSCKASGYTFTNYGMNWVKQAPGQGLKWMGWINTYTGEPTYTDDFKGRFAFSLDTSVSTAYLQISSLKADDTAVYFCARGGFGSSYWYFDVWGQGSLVTVSS
VL: DIQLTQSPSSLSASVGDRVSITCKASQDVSIAVAWYQQKPGKAPKLLIYSASYRYTGVPDRFSGSGSGTDFTLTISSLQPEDFAVYYCQQHYITPLTFGAGTKVEIKR
modifications: linker-drug GGFG-Dxd on cysteines of reduced interchain disulfides; average DAR 3.69
B6: anti-BCMA-005-Hu178-CPD-D4 (antibody, human IgG1, kappa, V domains shown)
VH: EVQLVESGGGLVKPGGSLRLSCAASGFTFSNFDMAWVRQAPGKGLEWVASIVTRGDDTYYRDSVRGRFTISRDNAKNTQYLQMNSLRAEDTAVYYCARHDYGGPSGWFGYWGQGTLVTVSS
VL: DIQMTQSPSSLSASVGDRVTITCRASQGFSNNLNWYQQKPGKTPKPLIYYTSNLHSGVPSRFSGSGSGTDYSLTISSLQPEDFATYYCQQDASFPPTFGQGTKLEIKR
modifications: linker-drug CPD1 on cysteines of reduced interchain disulfides; HIC-DAR 4.24
B7: anti-BCMA-005-Hu178-vcMMAE-D4 (antibody, human IgG1, kappa, V domains shown)
VH: EVQLVESGGGLVKPGGSLRLSCAASGFTFSNFDMAWVRQAPGKGLEWVASIVTRGDDTYYRDSVRGRFTISRDNAKNTQYLQMNSLRAEDTAVYYCARHDYGGPSGWFGYWGQGTLVTVSS
VL: DIQMTQSPSSLSASVGDRVTITCRASQGFSNNLNWYQQKPGKTPKPLIYYTSNLHSGVPSRFSGSGSGTDYSLTISSLQPEDFATYYCQQDASFPPTFGQGTKLEIKR
modifications: vc-MMAE on cysteines of reduced interchain disulfides; HIC-DAR 3.78
B8: anti-BCMA-005-Hu178-CPD-D8 (antibody, human IgG1, kappa, V domains shown)
VH: EVQLVESGGGLVKPGGSLRLSCAASGFTFSNFDMAWVRQAPGKGLEWVASIVTRGDDTYYRDSVRGRFTISRDNAKNTQYLQMNSLRAEDTAVYYCARHDYGGPSGWFGYWGQGTLVTVSS
VL: DIQMTQSPSSLSASVGDRVTITCRASQGFSNNLNWYQQKPGKTPKPLIYYTSNLHSGVPSRFSGSGSGTDYSLTISSLQPEDFATYYCQQDASFPPTFGQGTKLEIKR
modifications: linker-drug CPD1 on cysteines of reduced interchain disulfides; HIC-DAR 7.73
B9: anti-BCMA-005-Hu178-vcMMAF-D4 (antibody, human IgG1, kappa, V domains shown)
VH: EVQLVESGGGLVKPGGSLRLSCAASGFTFSNFDMAWVRQAPGKGLEWVASIVTRGDDTYYRDSVRGRFTISRDNAKNTQYLQMNSLRAEDTAVYYCARHDYGGPSGWFGYWGQGTLVTVSS
VL: DIQMTQSPSSLSASVGDRVTITCRASQGFSNNLNWYQQKPGKTPKPLIYYTSNLHSGVPSRFSGSGSGTDYSLTISSLQPEDFATYYCQQDASFPPTFGQGTKLEIKR
modifications: vc-MMAF on cysteines of reduced interchain disulfides; HIC-DAR 3.86
B10: anti-BCMA-005-Hu178-OMeMMAE-D4 (antibody, human IgG1, kappa, V domains shown)
VH: EVQLVESGGGLVKPGGSLRLSCAASGFTFSNFDMAWVRQAPGKGLEWVASIVTRGDDTYYRDSVRGRFTISRDNAKNTQYLQMNSLRAEDTAVYYCARHDYGGPSGWFGYWGQGTLVTVSS
VL: DIQMTQSPSSLSASVGDRVTITCRASQGFSNNLNWYQQKPGKTPKPLIYYTSNLHSGVPSRFSGSGSGTDYSLTISSLQPEDFATYYCQQDASFPPTFGQGTKLEIKR
modifications: Linker-MMAE derivative 2 on cysteines of reduced interchain disulfides; HIC-DAR 3.79
B11: anti-BCMA-005-Hu178-glucoseMMAE-NC-D4 (antibody, human IgG1, kappa, V domains shown)
VH: EVQLVESGGGLVKPGGSLRLSCAASGFTFSNFDMAWVRQAPGKGLEWVASIVTRGDDTYYRDSVRGRFTISRDNAKNTQYLQMNSLRAEDTAVYYCARHDYGGPSGWFGYWGQGTLVTVSS
VL: DIQMTQSPSSLSASVGDRVTITCRASQGFSNNLNWYQQKPGKTPKPLIYYTSNLHSGVPSRFSGSGSGTDYSLTISSLQPEDFATYYCQQDASFPPTFGQGTKLEIKR
modifications: Linker-MMAE derivative 1 on cysteines of reduced interchain disulfides; HIC-DAR 3.73

The binders below were run against T1, TROP2 (assay: cell-based or functional assay).

Binder | A431 IC50/µg/mL (in vitro cell viability assay) [µg/mL]
B1 | 0.11
B2 | 0.074
B3 | 0.048
B4 | 0.024
B5 | 0.057

These binders were tested against T2, BCMA (assay: cell-based or functional assay).

Binder | EC50(nM), inhibition of MM.1S cell proliferation [nM]
B6 | 12.2
B7 | 2.3
B8 | 4.56

Target: T2, BCMA
Assay: cell-based or functional assay
Remark: another data set of the same source

Binder | EC50(nM), inhibition of MM.1S cell proliferation [nM] | Relative activity (%), inhibition of MM.1S cell proliferation [%]
B9 | 1.12 | 166
B10 | 2.42 | 77.1
B11 | 2.15 | 86.8
B7 | 1.87 | 100
